Reference: patent US20240335558A1, “ISOLATED POLYPEPTIDE AND USE THEREOF” (GLYCO-THERAPY BIOTECHNOLOGY CO., LTD., priority 2021, published 2024)

Tests used:
Format in all cases: biochemical
[1] = tested on: Trastuzumab-G2F; assay: HpFT-4HR and HFT6 transferring GDP-FAmP4Biotin to Trastuzumab-G2F; settings: donor GDP-FAmP4Biotin 1 mM, enzyme 0.5 mg/mL, 30° C., 6 h; FIG. 5A
[2] = tested on: Trastuzumab-(GalNAzβ1,4)GlcNAc; assay: HpFT-4HR and HFT6 transferring GDP-FAmP4Biotin to Trastuzumab-(GalNAzβ1,4)GlcNAc; settings: donor GDP-FAmP4Biotin 1 mM, enzyme 0.5 mg/mL, 30° C., 6 h; FIG. 5B
Protocol: Three parallels were set up for each group. After the reaction time point was reached, to the reaction solution was added 10 mM LacNA, and the reaction was terminated by a desalting column (Zeba™ Spin Desalting Columns/2 ml/40K, Thermo Fisher Scientific), and finally mass spectrometry was carried out and % of conversion was calculated. % of conversion=(MAR0 peak intensity*0+MAR1peak intensity*1+MAR2 peak intensity*2)/2* (MAR0 peak intensity+MAR1 peak intensity+MAR2 peak intensity)*100%.
Three parallels were set up for each group. After the reaction time point was reached, to the reaction solution was added 10 mM LacNAc, and the reaction was terminated by a desalting column (Zeba™ Spin Desalting Columns/2 ml/40K, Thermo Fisher Scientific), and finally mass spectrometry was carried out and % of conversion was calculated. […] For Trastuzumab-(GalNAzβ1,4)GlcNAc, % of conversion was calculated according to Example 18.

[3] = tested on: Trastuzumab-G2F; assay: HpFT-2HR and HpFT-4HR transferring GDP-FAmP4Biotin or GDP-FAzP4Biotin to Trastuzumab-G2F; settings: donor 1 mM, enzyme 0.5 mg/mL, 30° C., 6 h; FIG. 6(A)
Protocol: (§1) To 40 mM Tris-HCl (pH 7.5) buffer were added Trastuzumab-G2F (2 mg/mL final), GDP-FAmP4Biotin (1 mM final), MgCl2 (20 mM final), and different HpFT enzymes (HpFT-4HR, HpFT-4HR(M4), HpFT-4HR(M7), HpFT-6HR, HpFT-3HR, HpFT-2HR, HpFT-1HR, or HpFT-0HR) (0.5 mg/mL final) in sequence, and the resulting mixed solution was allowed to react at 30° C. for 3 h. Three parallels were set up for each group. After the reaction time point was reached, to the reaction solution was added 10 mM LacNAc (N-acetyl-D-lactosamine), and the reaction was terminated by a desalting column (Zeba™ Spin Desalting Columns/2 ml/40K, Thermo Fisher Scientific), and finally mass spectrometry was carried out and % of conversion was calculated. % of conversion=(MAR0 peak intensity*0+MAR1peak intensity*1+MAR2 peak intensity*2+MAR3 peak intensity*3+MAR4 peak intensity*4)/4* (MAR0 peak intensity+MAR1 peak intensity+MAR2 peak intensity+MAR3 peak intensity+MAR4 peak intensity)*100%.
(§2) To 40 mM Tris-HCl (pH 7.5) buffer were added Trastuzumab-G2F (2 mg/mL final), GDP-FAmP4Biotin or GDP-FAzP4Biotin (1 mM final), MgCl2 (20 mM final), and HpFT-2HR or HpFT-4HR (0.5 mg/mL final) in sequence, and the resulting mixed solution was allowed to react at 30° C. for 6 h. Three parallels were set up for each group. After the reaction time point was reached, to the reaction solution was added 10 mM LacNAc, and the reaction was terminated by a desalting column (Zeba™ Spin Desalting Columns/2 ml/40K, Thermo Fisher Scientific), and finally mass spectrometry was carried out and % of conversion was calculated. % of conversion was calculated according to Example 17.

[4] = tested on: Trastuzumab-(GalNAzβ1,4)GlcNAc; assay: HpFT-2HR and HpFT-4HR transferring GDP-FAmP4Biotin or GDP-FAzP4Biotin to Trastuzumab-(GalNAzβ1,4)GlcNAc; settings: donor 1 mM, enzyme 0.5 mg/mL, 6 h; FIG. 6(B)
Protocol: as §1, with “added Trastuzumab-(Fucα1,6)(Galβ1,4)GlcNAc” for “added Trastuzumab-G2F”, “HpFT-2HR, HpFT-1HR” for “HpFT-2HR, HpFT-1HR,”, “for 1” for “for 3”, “mM LacNA,” for “mM LacNAc (N-acetyl-D-lactosamine),”, “peak intensity*2)/2*” for “peak intensity*2+MAR3 peak intensity*3+MAR4 peak intensity*4)/4*”, “peak” for “peak intensity+MAR3 peak intensity+MAR4 peak”
as §2, with “Trastuzumab-(GalNAzβ1,4)GlcNAc” for “Trastuzumab-G2F”, “30 t” for “30° C.”, “18.” for “17.”

B1: HpFT-4HR: reported α-1,3 fucosyltransferase (Wu P. et al.): catalytically active domain, four heptapeptide repeat sequences, C-terminus His tag (protein)
chain: MFQPLLDAFIESASIEKMVSKSPPPPLKIAVANWWGDEEIKEFKKSVLYFILSQRYAITLHQNPNESSDLVFSNPLGAARKILSYQNTKRVFYTGENESPNFNLFDYAIGFDELDFNDRYLRMPLYYAHLHYEAELVNDTTAPYKLKDNSLYALKKPSHHFKENHPNLCAVVNDESDLLKRGFASFVASNANAPMRNAFYDALNSIEPVTGGGSVRNTLGYKVGNKSEFLSQYKFNLCFENSQGYGYVTEKILDAYFSHTIPIYWGSPSVAKDFNPKSFVNVHDFNNFDEAIDYIKYLHTHPNAYLDMLYENPLNTLDGKAYFYQDLSFKKILDFFKTILENDTIYHNNPFIFYRDLHEPLISIDDLRVNYDDLRVNYDDLRVNYDDLRVNYLEHHHHHH
modifications: Catalytically active domain of Helicobacter pylori Alpha-(1,3)-fucosyltransferase (GenBank No.AAD07710.1) with 4 heptapeptide repeats and a C-terminal His tag
- catalytic activity (% of conversion), HpFT-4HR versus HFT6 [1]: much higher than that of human-derived fucosyltransferase HFT6
- catalytic activity (% of conversion), HpFT-4HR versus HFT6 [2]: much higher than that of human-derived fucosyltransferase HFT6
- activity in catalyzing the transfer of GDP-FAmP4Biotin relative to transfer of GDP-FAzP4Biotin [3]: significantly higher
- activity in catalyzing the transfer of GDP-FAmP4Biotin relative to transfer of GDP-FAzP4Biotin [4]: significantly higher
